One substance from publication PMC4109008 can be followed below.

Bounds are passed on as bounds.

In the test the target is zipper-mEos3.2C (split site 164E). The test is described as follows: split reporter (BiFC, NanoBiT); BiFC signal of E. coli cultures read in a plate reader with 480 nm excitation at different culture durations, normalised to OD600; zippers against mutated zippers.

Take “mEos3.2N-Zipper (split site 164E) (peptide)”: the complementation efficiency (intensity ratio of the specific BiFC signal by leucine zippers to the nonspecific signal via mutated leucine zippers) is less than 12.
